Experimental data: article PMC6441110, “A novel 3-hydroxypropionic acid-inducible promoter regulated by the LysR-type transcriptional activator protein MmsR of Pseudomonas denitrificans” (Scientific Reports, 2019)

Assays:
[1] = target: T1, MmsR (Pseudomonas denitrificans (nom. rej.), UniProt A0A9X7MYS1); test: EMSA with mmsA promoter DNA, purified MmsR with and without inducer; conditions: 25 mM 3-HP; 40 nM DNA probe; pH 7.4, 750 mM KCl; effector of DNA binding (inducer)
T1 construct: gene F1C79_09590; cell rows: native chromosomal MmsR; gene divergent from mmsA
T1 sequence (A0A9X7MYS1 1-298): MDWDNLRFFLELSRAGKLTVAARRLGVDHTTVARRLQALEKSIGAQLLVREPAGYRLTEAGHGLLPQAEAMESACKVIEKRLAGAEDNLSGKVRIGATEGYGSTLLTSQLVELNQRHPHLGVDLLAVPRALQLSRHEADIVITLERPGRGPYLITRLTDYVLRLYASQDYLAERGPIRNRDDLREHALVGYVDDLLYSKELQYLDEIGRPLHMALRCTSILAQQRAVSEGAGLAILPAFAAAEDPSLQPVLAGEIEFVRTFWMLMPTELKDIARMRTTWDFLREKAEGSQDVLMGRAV

[2] = target: MmsR, LysR-type transcriptional activator protein of Pseudomonas denitrificans, tagged with six histidine residues at the C-terminus (Pseudomonas denitrificans ATCC 13867); test: native gel or EMSA + SEC; native PAGE and/or gel filtration of purified His-tagged MmsR at the high concentration of 550 nM; monomer to dimer
[3] = target: T2, MmsR (LysR-type transcriptional activator, C4-LysR) (Pseudomonas denitrificans ATCC 13867, UniProt A0A9X7MYS1 1-298); test: EMSA; no 3-HP; 50 mM Tris pH 7.4, 750 mM KCl (1X as printed), 0.5 mM DTT, 0.5 mM EDTA, room temperature; EMSA 40 nM DNA, 0-48.5 nM MmsR, 30 min; footprinting 230 nM DNA, 0-1.2 uM MmsR; conditions: protein: recombinant; tags: C-terminal His6 (pET30b+); chain copies: 2; label: none (SYBR Green stain); blunt
T2 sequence: T1 sequence (A0A9X7MYS1 1-298)

[4] = target: T2, MmsR (LysR-type transcriptional …); test: EMSA; no 3-HP; stronger shift than F1M2; 50 mM Tris pH 7.4, 750 mM KCl (1X as printed), 0.5 mM DTT, 0.5 mM EDTA, room temperature; EMSA 40 nM DNA, 0-48.5 nM MmsR, 30 min; footprinting 230 nM DNA, 0-1.2 uM MmsR; conditions: protein: recombinant; tags: C-terminal His6 (pET30b+); chain copies: 2; label: none (SYBR Green stain); blunt
[5] = target: T2, MmsR (LysR-type transcriptional …); test: DNase I footprinting; no 3-HP; O1 more protected than O2; 50 mM Tris pH 7.4, 750 mM KCl (1X as printed), 0.5 mM DTT, 0.5 mM EDTA, room temperature; EMSA 40 nM DNA, 0-48.5 nM MmsR, 30 min; footprinting 230 nM DNA, 0-1.2 uM MmsR; conditions: protein: recombinant; tags: C-terminal His6 (pET30b+); chain copies: 2; blunt

## O=C(O)CCO [compound 1, 3-hydroxypropionic acid]
[1]
  EMSA with mmsA promoter DNA, purified MmsR with and without inducer: 3-HP promotes the binding affinity between MmsR and the PmmsA promoter

## MmsR, LysR-type transcriptional activator protein of Pseudomonas denitrificans, tagged with six histidine residues at the C-terminus (natural protein)
[2]
  stoichiometry N: 2

B1: F12 (O1 and O2 intact) (dsDNA)
DNA 1: GTCAGCCTCAGCGCACCTCGAATGTGCAAAAACGCAGACCATACTTGCACATCACCGCATTGAGTACATCAAAAATGCACTGTTAGGATCGATCCAGACAACAAAAAAGCCACAGGCTGGGAGAATCCCG
DNA 2: CGGGATTCTCCCAGCCTGTGGCTTTTTTGTTGTCTGGATCGATCCTAACAGTGCATTTTTGATGTACTCAATGCGGTGATGTGCAAGTATGGTCTGCGTTTTTGCACATTCGAGGTGCGCTGAGGCTGAC
[3]
  binding result: binds

B2: F12M (O1 intact, O2 mutant) (dsDNA)
DNA 1: GTCAGCCTCAGCGCACCTCGAATGTGCAAAAACGCAGACCATACTTGCACATCACCGCATTGAGTACATCAATCCTTGCTTGTTAGGATCGCGCCCAGGCACAAAAAAGCCACAGGCTGGGAGAATCCCG
DNA 2: CGGGATTCTCCCAGCCTGTGGCTTTTTTGTGCCTGGGCGCGATCCTAACAAGCAAGGATTGATGTACTCAATGCGGTGATGTGCAAGTATGGTCTGCGTTTTTGCACATTCGAGGTGCGCTGAGGCTGAC
[4]
  binding result: binds

B3: 169 bp footprinting fragment (dsDNA)
DNA 1: CCGCAGGTTGTCCCAGTCCATGTCAGCCTCAGCGCACCTCGAATGTGCAAAAACGCAGACCATACTTGCACATCACCGCATTGAGTACATCAAAAATGCACTGTTAGGATCGATCCAGACAACAAAAAAGCCACAGGCTGGGAGAATCCCGATGACCGCAACTGCCCCG
DNA 2: CGGGGCAGTTGCGGTCATCGGGATTCTCCCAGCCTGTGGCTTTTTTGTTGTCTGGATCGATCCTAACAGTGCATTTTTGATGTACTCAATGCGGTGATGTGCAAGTATGGTCTGCGTTTTTGCACATTCGAGGTGCGCTGAGGCTGACATGGACTGGGACAACCTGCGG
[5]
  binding result: binds
